Here are results for three molecules from patent US20200078439A1 (IMMATICS BIOTECHNOLOGIES, published 2020).

The target of the experiment is T1, HLA-A*0211 (purified recombinant HLA-A*0211 heavy chain with beta-2 microglobulin) (human).
T1 construct: MHC class I molecule without peptide; folds with b2m in a peptide-dependent manner, and folded complex is measured by ELISA
Put plainly: ELISA-based refolding assay: recombinant HLA-A*0211 heavy chain + b2m + graded doses of peptide. On the technique in general: An ELISA detects its analyte on a solid surface through an enzyme-linked reagent.
Regarding LDRERAKN [BIR-12 (C-terminal octamer of BIR-004: LDRERAKN)], the binding result was “no binding”.

For LKLDRERAKN [BIR-13 (C-terminal decamer of BIR-004: LKLDRERAKN)], the binding result was “binds”.

KLDRERAKN (also called nonamer BIR-11) [BIR-11 (C-terminal nonamer of BIR-004: KLDRERAKN)]: the binding result is “binds”.
